Laboratory results from IntAct's records for PubMed 19966800.

B1: Cytotoxicity-associated immunodominant antigen (Helicobacter pylori), P55980 (parent)
chain: MTNETIDQTRTPDQTQSQTAFDPQQFINNLQVAFIKVDNVVASFDPDQKPIVDKNDRDNRQAFDGISQLREEYSNKAIKNPTKKNQYFSDFIDKSNDLINKDNLIDVESSTKSFQKFGDQRYQIFTSWVSHQKDPSKINTRSIRNFMENIIQPPIPDDKEKAEFLKSAKQSFAGIIIGNQIRTDQKFMGVFDESLKERQEAEKNGGPTGGDWLDIFLSFIFNKKQSSDVKEAINQEPVPHVQPDIATTTTDIQGLPPEARDLLDERGNFSKFTLGDMEMLDVEGVADIDPNYKFNQLLIHNNALSSVLMGSHNGIEPEKVSLLYAGNGGFGDKHDWNATVGYKDQQGNNVATLINVHMKNGSGLVIAGGEKGINNPSFYLYKEDQLTGSQRALSQEEIRNKVDFMEFLAQNNTKLDNLSEKEKEKFQNEIEDFQKDSKAYLDALGNDRIAFVSKKDTKHSALITEFNNGDLSYTLKDYGKKADKALDREKNVTLQGSLKHDGVMFVDYSNFKYTNASKNPNKGVGATNGVSHLEAGFNKVAVFNLPDLNNLAITSFVRRNLENKLTAKGLSLQEANKLIKDFLSSNKELAGKALNFNKAVAEAKSTGNYDEVKKAQKDLEKSLRKREHLEKEVEKKLESKSGNKNKMEAKAQANSQKDEIFALINKEANRDARAIAYTQNLKGIKRELSDKLEKISKDLKDFSKSFDEFKNGKNKDFSKAEETLKALKGSVKDLGINPEWISKVENLNAALNEFKNGKNKDFSKVTQAKSDLENSVKDVIINQKVTDKVDNLNQAVSVAKAMGDFSRVEQVLADLKNFSKEQLAQQAQKNEDFNTGKNSELYQSVKNSVNKTLVGNGLSGIEATALAKNFSDIKKELNEKFKNFNNNNNGLKNSTEPIYAKVNKKKTGQVASPEEPIYTQVAKKVNAKIDRLNQIASGLGGVGQAAGFPLKRHDKVDDLSKVGLSASPEPIYATIDDLGGPFPLKRHDKVDDLSKVGRSRNQELAQKIDNLNQAVSEAKAGFFGNLEQTIDKLKDSTKKNVMNLYVESAKKVPASLSAKLDNYAINSHTRINSNIQNGAINEKATGMLTQKNPEWLKLVNDKIVAHNVGSVSLSEYDKIGFNQKNMKDYSDSFKFSTKLNNAVKDIKSGFTHFLANAFSTGYYCLARENAEHGIKNVNTKGGFQKS

Variants of: B1
Details: with mark2_human MARK2, Q7KZI7
Sequence of mark2_human MARK2, Q7KZI7 (Q7KZI7 whole entry): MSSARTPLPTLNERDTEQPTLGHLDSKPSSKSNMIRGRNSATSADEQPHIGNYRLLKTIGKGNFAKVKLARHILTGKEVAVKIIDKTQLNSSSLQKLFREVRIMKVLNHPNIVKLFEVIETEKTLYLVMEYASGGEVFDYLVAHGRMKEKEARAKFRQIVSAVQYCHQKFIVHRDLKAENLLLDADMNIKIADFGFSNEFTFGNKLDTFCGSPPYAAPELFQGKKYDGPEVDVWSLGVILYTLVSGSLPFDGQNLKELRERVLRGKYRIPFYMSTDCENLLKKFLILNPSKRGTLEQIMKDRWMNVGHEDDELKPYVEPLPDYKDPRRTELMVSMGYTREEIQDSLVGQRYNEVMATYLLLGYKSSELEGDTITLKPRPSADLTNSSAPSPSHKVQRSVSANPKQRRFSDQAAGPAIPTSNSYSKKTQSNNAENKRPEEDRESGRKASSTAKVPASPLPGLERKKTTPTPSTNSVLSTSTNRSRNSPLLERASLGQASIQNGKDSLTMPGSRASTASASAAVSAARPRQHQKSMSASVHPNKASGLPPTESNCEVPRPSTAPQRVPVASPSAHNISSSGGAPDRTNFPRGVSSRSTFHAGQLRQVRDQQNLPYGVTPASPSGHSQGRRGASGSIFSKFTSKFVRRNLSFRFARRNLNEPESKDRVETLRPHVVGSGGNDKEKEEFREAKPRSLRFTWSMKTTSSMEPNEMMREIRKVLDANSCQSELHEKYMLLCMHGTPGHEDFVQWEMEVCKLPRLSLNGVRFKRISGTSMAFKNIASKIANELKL

Variant | effect of a mutation on the interaction
V956G | disrupting interaction
L950G | disrupting interaction
L959G | disrupting interaction
R952G | decreasing interaction
